Measured values published in patent publication US10450573B2, “Compositions and methods for regulation of gene expression with, and detection of, folinic acid and folates” (The Board of Trustees of the Leland Stanford Junior …, priority 2014, dated 2019).

B1: tFA8-3: truncated (6R)-FA specific RNA aptamer, SEQ ID NO: 19 (nucleic acid)
chain: UUUGCCAACGUCUGGUCACGACCGUAGUACACUACCCCUCGAAAUCACGAGGGAGACGAGAUAGGCGGA
modifications: unmodified RNA
B2: miRNA switch: folinic acid-responsive miRNA switch with aptamer FA8-3 that targets GFP, SEQ ID NO: 57 (nucleic acid)
chain: AATAACCGGTGCGATCGCGAACGGGTCCTCACTACCCCTCGAAATCACGAGGGAGACGAGATAAGAGCGACGGCGGAGCGAGCACAAGCTGGAGTACAACTATAGTGAAGCCACAGATGTATAGTTGTACTCCAGCTTGTGCCCGCCTTGCCAACCATAACGTCTGGTCACGACCGTAGTAAGGGCCCGTTTTTAATTAAATCGATTATT
modifications: Synthetic nucleic acid
B3: tFA8-14: truncated (6S)-FA specific RNA aptamer, SEQ ID NO: 25 (nucleic acid)
chain: CCGCGCAAGUGCAUUAACGGUGACACCGAAAGCUGGAAAGCCUGACAUCGAACGCAAAAGGCUGCGUGG
modifications: unmodified RNA

What was measured:
[1] = Surface plasmon resonance aptamer binding assay, (6S)-folinic acid; conditions: SPR, 25° C., selection buffer pH 7.4, 5 mM MgCl2
Experimental: (§1) Surface plasmon resonance characterization of aptamer binding properties. Nucleic acid aptamer preparation. RNA aptamers were prepared by PCR amplification of DNA template sequences (Table 4, Integrated DNA Technologies, Coralville, Iowa) using forward and reverse primers Biacore-fwd and Biacore-rev, respectively, followed by transcription of the PCR product using the MEGAshortscript T7 transcription kit (Life Technologies) and purification of the transcription product using the RNA Clean & Concentrator kit (Zymo Research, Irvine, Calif.), according to the manufacturers' instructions. Aptamers were resuspended in selection buffer, denatured at 65° C. for 5 min, and cooled to room temperature directly before use.
(§2) Sensor chip surface generation. Experiments were performed on a Biacore X100 instrument (GE Healthcare) at 25° C. A CM5 sensor chip (GE Healthcare) was equilibrated with HBS-N buffer. The DNA linker strand (5′-AmMC6-[…]) (Integrated DNA Technologies) (SEQ ID NO:133), with an amino modified 6-carbon linker on the 5′ end, was immobilized to the chip surface. The carboxymethylated dextran surface of the CM5 chip was activated for 7 min at a flow rate of 10 μL/min using a 1:1 volume ratio of 0.4 M 1-ethyl-3-(3-dimethylaminopropyl) carbodiimide (GE Healthcare) and 0.1 M N-hydroxysuccinimide (GE Healthcare). A molar ratio of 1:30 of DNA strand to hexadecyltrimethylammonium bromide (Sigma-Aldrich, St. Louis, Mo.) was diluted in 10 mM HEPES buffer (Sigma-Aldrich) to a final concentration of 20 μM and 0.6 mM, respectively, and injected over the activated surface for 10 min at a flow rate of 5 μL/min. Excess activated groups were blocked by an injection of 1 M ethanolamine (GE Healthcare), pH 8.5, for 7 min at a flow rate of 10 μL/min. The immobilization reaction was performed sequentially on both flow cells (FC1, FC2) and yielded approximately 4,000 RU of the DNA strand.
(§3) Aptamer binding assay. The Biacore X100 instrument was primed three times with running buffer prior to all binding assays. For each assay, three startup cycles were performed to stabilize the sensorgram baseline. For each startup cycle, the aptamer (˜40-70 ng/μL, ˜3 μM) was captured onto the sample flow cell (FC2) for 40 s at a flow rate of 5 μL/min. 25 mM NaOH (GE Healthcare) was injected for 30 s at a flow rate of 30 μL/min over both flow cells to regenerate the sensor surface. A dilution series of (6R)- or (6S)-folinic acid (Schircks Laboratories, Jona, Switzerland) was prepared in selection buffer and filtered through a 0.2 μm membrane (Pall Corporation, Port Washington, N.Y.). For each concentration sample, the aptamer was captured onto the sample flow cell (FC2) for 40 s at a flow rate of 5 μL/min, the folinic acid solution was injected over both flow cells at a flow rate of 30 μL/min to monitor target association, and selection buffer was injected over both flow cells at a flow rate of 30 μL/min to monitor target dissociation. Association and dissociation phase lengths used were chosen based on time needed to reach equilibrium. Aptamer and folinic acid were removed from the sensor surface by injecting 25 mM NaOH for 30 s at a flow rate of 30 μL/min over both flow cells.
(§4) Data processing and analysis were performed using Biacore X100 Evaluation Software version 2.0 (GE Healthcare). A double-referencing method was performed to process all datasets. Data from the sample flow cell (FC2) were referenced first by subtracting data from the reference flow cell (FC1) to correct for bulk refractive index changes, nonspecific binding, injection noise, matrix effects, and baseline drift. Reference-subtracted data (FC2−FC1) were double-referenced with a blank injection of running buffer to account for any systematic drift over the course of the injection. Double-referenced data were fit to a 1:1 binding model for kinetic analysis or steady-state affinity model for thermodynamic analysis. […]

[2] = SPR binding to (6R,S)-5-formyl-5,6,7,8-tetrahydropteroic acid; conditions: ligand is mixture of (6R) and (6S) diastereomers
[3] = SPR binding to (6R,S)-5-methyl-5,6,7,8-tetrahydrofolic acid; conditions: ligand is mixture of (6R) and (6S) diastereomers, read-out: KD, (6R,S)-5-methyl-THF
[4] = SPR equilibrium binding to folate derivative (6R)-tetrahydrobiopterin; conditions: N.D. = non-detectable levels of binding, read-out: KD, (6R)-Tetrahydrobiopterin (THB)
[5] = Surface plasmon resonance aptamer binding assay, (6R)-folinic acid; conditions: for Selectivity: between (6R)- and (6S)-folinic acid diastereomers
Experimental: as §1, §2, §3, §4

[6] = test system: GFP expression; assay: miRNA switch silencing activity on GFP in mammalian cells; assay type: cell-based; conditions: folinic acid
From the text: Ligand-responsive, microRNA (miRNA) switches have been developed that modulate Drosha processing. These switches integrate an aptamer into the basal segments of a miRNA. Internal loop size contained within the basal segments affects Drosha processing and therefore the levels of miRNA-mediated gene silencing. By integrating an aptamer within the basal segments, unbound aptamer can remain relatively unstructured, while ligand binding can sequester nucleotides involved in binding and inhibit Drosha processing.
Aptamer integration into this switch platform requires two integration stems; therefore, aptamer FA8-3 was chosen. Separate studies on using this aptamer in a transmitter-based switch observe that an internal loop within the aptamer could be expanded while retaining ligand binding ability. This loop was expanded to the previously identified optimal loop size and integrated into the miRNA switch that targets GFP. A single copy of the miRNA switch enables up to 2.1-fold change in GFP expression (FIG. 26b); including two copies yields up to 2.6-fold change (FIG. 26c). Additional copies of the switch would be expected to further increase the achievable activation ratio, as would specific use of (6R)-folinic acid.

[7] = SPR screen of truncated or mutated aptamers for folinic acid binding (qualitative)
Experimental: Full length sequences were amplified off of sequencing PCR products using primers N70-fwd-short and Biacore-N70-rev to append a poly(A) tail. Truncated or mutated sequences were synthesized by Integrated DNA Technologies or the Protein and Nucleic Acid facility (Stanford, Calif.).
as §1
Sensor chip surface generation. Experiments were performed on a Biacore X100 instrument (GE Healthcare) at 25° C. A CM5 sensor chip (GE Healthcare) was equilibrated with HBS-N buffer. The DNA linker strand (5′-AmMC6-[…]) (Integrated DNA Technologies) (SEQ ID NO:133), with an amino modified 6-carbon linker on the 5′ end, was immobilized to the chip surface. […]

[8] = SPR, 1:1 binding model, 25° C., selection buffer pH 7.4, 5 mM MgCl2
[9] = SPR, 25° C., selection buffer pH 7.4, 5 mM MgCl2

| Molecule | Kd [1] [µM] | ka, (6R,S)-5-formyl-THPteroic Acid [2] [M⁻¹ s⁻¹] | kd, (6R,S)-5-formyl-THPteroic Acid [2] [s⁻¹] | Kd ([2]; read-out: KD, (6R,S)-5-formyl-THPteroic Acid) [µM] | Kd [3] [µM] | Kd [4] [µM] | ka, (6R)-Folinic Acid [5, 8] [M⁻¹ s⁻¹] | kd, (6R)-Folinic Acid [5, 8] [s⁻¹] | Kd [5, 9] [µM] | Selectivity [5] | change in GFP expression ([6]; single copy of the miRNA switch) | change in GFP expression ([6]; two copies of the miRNA switch) | folinic acid binding (qualitative) [7] | ka, (6S)-Folinic Acid ([1]; 1:1 binding model) [M⁻¹ s⁻¹] | kd, (6S)-Folinic Acid ([1]; 1:1 binding model) [s⁻¹] |
| --- | --- | --- | --- | --- | --- | --- | --- | --- | --- | --- | --- | --- | --- | --- | --- |
| B1 | 28.6 | 305000 | 0.0292 | 0.0957 | 0.158 | 1.6 | 459000 | 0.0217 | 0.0473 | 606 | – | – | – | – | – |
| B2 | – | – | – | – | – | – | – | – | – | – | up to 2.1 fold | up to 2.6 fold | – | – | – |
| B3 | 0.144 | – | – | – | – | – | – | – | 10200 | 71,100 | – | – | maintains binding | 89200 | 0.0128 |
